Drawing on the supplement of paper PMC9942255, this text covers AmyQ secretion efficiency for 109 sequences.

The subject of this data set is Bacillus subtilis DB104 (SP-AmyQ fusion secretion). Put plainly: AmyQ secretion efficiency, weighted average sort bin (1 = best secretion, 10 = worst) (bin number (weighted average, 1-10)); higher = lower secretion efficiency. In a few lines: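 A B. subtilis DB104 library carrying amyE-integrated fusions of designed signal peptides to mature AmyQ was encapsulated at about 0.3 cells per ~65 nL alginate bead with fluorescein-starch and grown about 13 h at room temperature. Following nile red staining, occupied beads were flow-sorted as large particles into 10 equally populated bins by green/red fluorescence ratio, and the bin amplicons were Illumina-sequenced. The secretion score is the read-frequency-weighted average bin number normalised to beads per bin, leaving out low-abundance sequences.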

With MRPVFPLKKRRVLFLSCFFGARQTEASASKR, the AmyQ secretion efficiency amounted to 7.34.
In the case of MRPVFPLKRSAVLFLSCFFGARQTEASASKR it was 8.12; in that of MRPVFPLRRRRRRFLSCFFGARQTEASASKR, 7.47.
As to MRPVFPTSQKKYLFLSCFFGARQTEASASKR, the AmyQ secretion efficiency turned out to be 7.29.
Regarding MRPVFPYTLSAVLFLSCFFGARQTEASASKR, the AmyQ secretion efficiency was found to be 2.08.
In the case of MRQRKKAVFVIMISFLIATVNVNTAHAAID it was 6.22; in that of MRRGKKLSVAVAASFMSLSISLPGVQAAEG, 1.3; in that of MRRKKKKVVSALSISALALSVSGVASAHEI, 3.9.
MRRKKKRVLTMCFLGLILFVPTALADNS came in with an AmyQ secretion efficiency of 3.09.
MRRKKRKAVLLSLIMLIAGFLISFSFQM registered an AmyQ secretion efficiency of 7.79.
MRRKKRKVVGFLSVLGLAAVFPLTAQAEKA gave an AmyQ secretion efficiency of 2.12.
In the case of MRRKRFTALAVFLLCFMPAAKIEHTQASLL it was 5.25; in that of MRRKRKRTSLLLAGLCTAAQMVFVTHASAEES, 2.89; in that of MRRRTDYKKQVVGILLSLAFVLFVFSFSERHE, 6.74.
In the case of MRRRWRSLALCGLALTLAPCAQAAEP it was 2.05.
The sequence MRRSLALCGLALTLAPCAQAAEP returned an AmyQ secretion efficiency of 2.27.
Take MRRVCFLAALIMAFTLPNSVYAQKP: the AmyQ secretion efficiency came out at 2.21.
As to MRRYRKVLTMCFLGLILFVPTALADNS, the AmyQ secretion efficiency was 1.79.
Under MRSKKILWISLLFALTLIFTMAFSNMSAQAAGK stands 2.64.
On to MRSKKLLFTLWISLLFALTLIFTMAFSNMSAQAAGK, for which the AmyQ secretion efficiency came out at 2.87.
Sequence MRSKKLWISLLFALFTMAFSNMSAQAAGK showed an AmyQ secretion efficiency of 2.16.
In turn, MRSKKLWISLLFALTLIFAMAFIAMIAQAAGK displayed an AmyQ secretion efficiency of 2.
MRSKKLWISLLFALTLIFTMAFSNMSAQAAGQ: the AmyQ secretion efficiency came out at 2.13.
Consider MRSKKLWISLLFALTLIFTMAFSNMSAQHAGK, for which the AmyQ secretion efficiency worked out at 6.69.
MRSKKLWISLLFALTLIFTMAFSNMSAQPAGK yielded an AmyQ secretion efficiency of 3.56.
Sequence MRSKKLWISLLFALTLIFTMAFSNMSAQRAGK had an AmyQ secretion efficiency of 6.17.
With MRSKKLWISLLFALTLIFTMAFSNMSAQWAGK, the AmyQ secretion efficiency turned out to be 6.53.
As for MRSKKLWISLLFALTLIFTMAFSNMSCQAAGK, the AmyQ secretion efficiency is 2.77.
Regarding MRSKKLWISLLFALTLIFTMAFSNMSDQAAGK, the AmyQ secretion efficiency is 2.84.
As to MRSKKLWISLLFALTLIFTMAFSNMSPQAAGK, the AmyQ secretion efficiency stood at 4.28.
As for MRSKKLWISLLFALTLIFTMAFSNMSVVTGAQAAGK, the AmyQ secretion efficiency stood at 2.11.
MRSKKLWISLLFALTLIFVMAFGNMTAQAAGK showed an AmyQ secretion efficiency of 1.9.
MRSKKLWISLLFALTLIKKKAFSNMSAQAAGK displayed an AmyQ secretion efficiency of 8.69.
MRSKKLWISLLFALTLIRKRKKRNMSAQAAGK gave an AmyQ secretion efficiency of 9.84.
The sequence MRSKKLWISLLFALTLITFTMAFSNMSAQAAGK displayed an AmyQ secretion efficiency of 3.27.
For the sequence MRSKKLWISLLFALTLITLLVAFTMAFSNMSAQAAGK, the AmyQ secretion efficiency came to 7.19.
Under MRSKKTWISLLFALTLIFTMAFSNMSAQAAGK stands 3.25.
With MRSYIKFNFIISVLTMCFLGLILFVPTALADNS, the AmyQ secretion efficiency was 1.36.
MRSYIKGTGRCKLGLILFVPTALADNS: the AmyQ secretion efficiency was found to be 6.59.
For the sequence MRSYIKSKKRCKQQLILFVPTALADNS, the AmyQ secretion efficiency worked out at 7.44.
Under MRSYIKTFNVLTMCFLGLILFVPTALADNS stands 2.59; under MRSYIKVKKKCRLGLILFVPTALADNS, 6.78.
Sequence MRSYIKVKKMCFLGLILFVPTALADNS registered an AmyQ secretion efficiency of 3.9.
MRSYIKVLTMCFLGLILFVEEDALADNS returned an AmyQ secretion efficiency of 2.58.
MRSYIKVLTMCFLGLILFVFSSLPTALADNS registered an AmyQ secretion efficiency of 2.22.
In the case of MRSYIKVLTMCFLGLILFVFTALADNS it was 7.29.
MRSYIKVLTMCFLGLILFVKRRKRRALADNS registered an AmyQ secretion efficiency of 7.48.
For the sequence MRSYIKVLTMCFLGLILFVPALADNS, the AmyQ secretion efficiency stood at 6.75.
Regarding MRSYIKVLTMCFLGLILFVPTALAAEE, the AmyQ secretion efficiency amounted to 3.07.
Consider MRSYIKVLTMCFLGLILFVPTALAAND, for which the AmyQ secretion efficiency was 2.11.
On to MRSYIKVLTMCFLGLILFVPTALAANR, for which the AmyQ secretion efficiency amounted to 2.08.
The sequence MRSYIKVLTMCFLGLILFVPTALAARK came in with an AmyQ secretion efficiency of 5.25.
In the case of MRSYIKVLTMCFLGLILFVPTALAEEE it was 2.15; in that of MRSYIKVLTMCFLGLILFVPTALCDNS, 3.89.
Turning to MRSYIKVLTMCFLGLILFVPTALFDNS, the AmyQ secretion efficiency is 7.14.
Under MRSYIKVLTMCFLGLILFVPTALGDNS stands 2.8; under MRSYIKVLTMCFLGLILFVPTALKDNS, 7.49.
Under MRSYIKVLTMCFLGLILFVPTALLDNS stands 5.28.
In the case of MRSYIKVLTMCFLGLILFVPTALMDNS it was 6.46; in that of MRSYIKVLTMCFLGLILFVPTALNDNS, 6.3; in that of MRSYIKVLTMCFLGLILFVPTALPDNS, 7.02.
With MRSYIKVLTMCFLGLILFVPTALQDNS, the AmyQ secretion efficiency was 6.11.
Under MRSYIKVLTMCFLGLILFVPTALTDNS stands 5.81.
MRSYIKVLTMCFLGLILFVPTALVDNS gave an AmyQ secretion efficiency of 5.38.
For the sequence MRSYIKVLTMCFLGLILFVPTALYDNS, the AmyQ secretion efficiency came out at 8.55.
Under MRSYIKVLTMCFLGLILFVPTCLADNS stands 2.04; under MRSYIKVLTMCFLGLILFVPTFLADNS, 5.95; under MRSYIKVLTMCFLGLILFVPTGLADNS, 1.86.
For the sequence MRSYIKVLTMCFLGLILFVPTGVFGSSPPFAAALADNS, the AmyQ secretion efficiency is 3.3.
MRSYIKVLTMCFLGLILFVPTHLADNS gave an AmyQ secretion efficiency of 6.38.
With MRSYIKVLTMCFLGLILFVPTILADNS, the AmyQ secretion efficiency is 2.6.
MRSYIKVLTMCFLGLILFVPTKDEPALADNS yielded an AmyQ secretion efficiency of 2.48.
Sequence MRSYIKVLTMCFLGLILFVPTKLADNS displayed an AmyQ secretion efficiency of 5.85.
MRSYIKVLTMCFLGLILFVPTLLADNS showed an AmyQ secretion efficiency of 4.36.
MRSYIKVLTMCFLGLILFVPTMLADNS registered an AmyQ secretion efficiency of 3.1.
Under MRSYIKVLTMCFLGLILFVPTNLADNS stands 3.6.
The sequence MRSYIKVLTMCFLGLILFVPTPLADNS came in with an AmyQ secretion efficiency of 5.93.
The sequence MRSYIKVLTMCFLGLILFVPTQLADNS had an AmyQ secretion efficiency of 5.96.
The sequence MRSYIKVLTMCFLGLILFVPTQTALADNS registered an AmyQ secretion efficiency of 2.3.
MRSYIKVLTMCFLGLILFVPTRLADNS registered an AmyQ secretion efficiency of 6.28.
MRSYIKVLTMCFLGLILFVPTSLADNS: the AmyQ secretion efficiency came out at 2.69.
Consider MRSYIKVLTMCFLGLILFVPTTAPSPGFALADNS, for which the AmyQ secretion efficiency was 4.85.
Sequence MRSYIKVLTMCFLGLILFVPTTLADNS came in with an AmyQ secretion efficiency of 1.67.
For MRSYIKVLTMCFLGLILFVPTTVVALADNS, the AmyQ secretion efficiency worked out at 2.15.
In the case of MRSYIKVLTMCFLGLILFVPTVLADNS, the AmyQ secretion efficiency is 2.19.
MRSYIKVLTMCFLGLILFVPTYLADNS gave an AmyQ secretion efficiency of 7.74.
The sequence MRSYIKVLTMCFLGLILFVRRKALADNS registered an AmyQ secretion efficiency of 6.5.
For MRSYIKVLTMCFLGLILFVVIATVSAIPTALADNS, the AmyQ secretion efficiency was 2.02.
In turn, MRSYIKVLTMCFLGLPTALADNS showed an AmyQ secretion efficiency of 3.96.
The sequence MRSYIKVRRRCRRRLILFVPTALADNS showed an AmyQ secretion efficiency of 6.04.
As for MRYFSKAVFVIMISFLIATVNVNTAHAAID, the AmyQ secretion efficiency worked out at 5.65.
MSFFTKNRLISSVLSTVVISSLLFPGAAGASSK showed an AmyQ secretion efficiency of 1.61.
In the case of MSFIIIPMTLALGAALTIAPLSFASAEEN, the AmyQ secretion efficiency is 6.39.
Take MSFKRVITCVMAASLTLGSLLPAGYASAKED: the AmyQ secretion efficiency stood at 2.84.
Under MSFVMNIIIALVTILMLSVTSLFALQPSAKAAEH stands 2.71; under MSGGGILALFVLSLGLLSFMVTPVSAASK, 2.53; under MSGSRVITCVMAASLTLGSLLPAGYASAKED, 3.72.
Sequence MSGSSFVLIVCIIFTSALFPTFSSVTAAQG gave an AmyQ secretion efficiency of 1.04.
Sequence MSGSSVMMLALTAAAGLGLTALHSAPAAKAAPL returned an AmyQ secretion efficiency of 2.7.
The sequence MSGSTLIILALFVLSLGLLSFMVTPVSAASK came in with an AmyQ secretion efficiency of 4.39.
Sequence MSGTCSIVCLWILVLLLSCLSGKSAYAATS gave an AmyQ secretion efficiency of 3.6.
MSGTIFFGPIILAFILFAGAIAIPS yielded an AmyQ secretion efficiency of 6.8.
The sequence MSGTTSIILFSTLALAAGMTAAAAGGAGTIHAQQP registered an AmyQ secretion efficiency of 3.5.
Sequence MSIWIVLFLVLIAAAISIFVYVSTGSEK gave an AmyQ secretion efficiency of 6.85.
The sequence MSKAAAVLLSLGLVFGFSYGAGHVAEAKTK had an AmyQ secretion efficiency of 2.88.
In the case of MSKGIIRFLLVSFVLFFALSTGITGVQAAPA it was 2.19; in that of MSKKTWMVGLLAGCLAAGGFSYNAFATEN, 4.68; in that of MSKLIMALVILGALGTSYISADSS, 7.07.
Consider MSKLLAAGIIGLLTVSIASPSFAAEK, for which the AmyQ secretion efficiency amounted to 3.64.
